According to US11275076B2, “Systems and methods for assessing blood platelet function” (Medtronic, Inc., priority 2016, dated 2022):

Test system: fresh whole blood
Test: drop distance cycle tests (ferromagnetic washer) assessing clot retraction in blood samples
Assay type: cell-based
Conditions: FIG. 4; for clot retraction (object drop distance over time): compared with fresh whole blood without platelet inhibitor, tests began after assumed clot initiation
Excerpt: Referring now to FIG. 3, a schematic drawing of a predicted trace 100 generated by successive drop distance test cycles of an object (e.g., the ferromagnetic object 32 described above) in blood over time that may be representative of data obtainable by an embodiment of a blood analysis system or apparatus of the present disclosure (e.g., the blood analysis system 20 of FIGS. 1 and 2). For example, and with additional reference to FIGS. 1 and 2, each test cycle includes the object 32 caused to move by the electromagnetic 34 toward the top of the chamber 30 and then allowed to drop; the drop distance of the object 32 is determined or sensed (e.g., an absolute drop distance is determined or sensed once the object 32 is at rest within the blood 40, or is determined or sensed at the end of a predetermined test cycle period). This so-determined drop distance serves as a single data point on the trace 100. The same drop distance test cycle is repeated for the same blood sample 40, at regular or irregular time intervals, over the course of an assessment time period with the result of each successive drop distance test cycle providing an additional data point from which the trace 100 is generated. (i.e., the determined “object drop distance” is plotted relative to the Y-axis at the corresponding point in time over the assessment time period along the X-axis).
As a point of reference, FIG. 4 presents the results of the drop distance cycle tests described above (using a ferromagnetic washer as the object) with three different blood samples. The first blood sample (“FWB”) consisted of fresh whole blood. The second blood sample (“FWB+5 ug/mL Reopro”) consisted of the fresh whole blood of the first sample and the platelet inhibitor Reopro at a concentration of 5 μg/mL. […] As explained in U.S. Pat. No. 8,921,115, clot strength can be another indicator of platelet function, and can be assessed (along with platelet retraction) with some systems and methods of the present disclosure. […]

B1: Reopro: the platelet inhibitor Reopro (antibody, chains of the INN, looked up, V domains shown)
VH: EVQLQQSGTVLARPGASVKMSCEASGYTFTNYWMHWVKQRPGQGLEWIGAIYPGNSDTSYIQKFKGKAKLTAVTSTTSVYMELSSLTNEDSAVYYCTLYDGYYVFAYWGQGTLVTVSA
VL: EIVLTQSPVTLSVTPGDSVSLSCRASRDISNNLHWFQQTSHESPRLLIKYASQSMSGIPSRFSGSGSGTDFTLSINSVETEDFGMYFCQQTNSWPYTFGGGTKLEIK
modifications: Fab
object movement profile, dependence on platelet inhibitor concentration (comparison of 5 μg/mL and 10 μg/mL Reopro in fresh whole blood): dose dependent | clot retraction (object drop distance over time) (fresh whole blood + 5 μg/mL Reopro): first blood sample (with normal platelet function) showed greater clot retraction that the second and third blood samples | clot retraction (object drop distance over time) (fresh whole blood + 10 μg/mL Reopro): first blood sample (with normal platelet function) showed greater clot retraction that the second and third blood samples
